Laboratory results published in patent publication US20220356229A1 (published 2022).

B1: antibody 324 (antibody, V domains shown)
VH: QVQLQESGPGLVKPSGTLSLTCAVSGGSISSSNWWSWVRQPPGKGLEWIGEIYHSGSTNYNPSLKSRVTISVDNSKNQFSLKLSSVTAADTAVYYCARESVAAAGISYYYYGMDVWGQGTTVTVSS
VL: EIVLTQSPGTLSLSPGERATLSCRASQSVSGRYLAWYQQKPGQAPRLLIYGASSRATGIPDRFSGSGSGTDFTLTISRLEPEDFAVYYCQHYGSSPGTFGQGTRLEIK
B2: antibody 317 (antibody, V domains shown)
VH: QVQLVQSGAEVKKPGASVKVSCKVSGYTLTELSMHWVRQAPGKGLEWMGGFDPEDGETIYAQKFQGRVTMTEDTSTDTAYMELSSLRSEDTAVYYCASSPAAAGTSQYYYYYGMDVWGQGTTVTVSS
VL: not shown
B3: antibody 320 (antibody, V domains shown)
VH: QVQLVQSGAEVKKPGASVKVSCKASGYTFTSYGISWVRQAPGQGLEWMGWISAYNGNTNYAQKLQGRVTMTTDTSTRTAYMELRSLRSDDTAVYYCARVGCYYDSSGYSCAENFQHWGQGTLVTVSS
VL: QSVLTQPPSVSGAPGQRVTISCTGSSSNIGAGYDVHWYQQLPGTAPKLLIYGNSNRPSGVPDRFSGSKSGTSASLAITGLQAEDEADYYCQSYDSSLSALFGGGTKLTVL
B4: antibody 323 (antibody, V domains shown)
VH: QVQLVQSGAEVKKPGASVKVSCKVSGYTLTELSMHWVRQAPGKGLEWMGGFDPEDGETIYAQKFQGRVTMTEDTSTDTAYMELSSLRSEDTAVYYCATSTIFAPGGWFDPWGQGTLVTVSS
VL: QSALTQPASVSGSPGQSITISCTGTSSDVGSYNLVSWYQQHPGKAPKLMIYEVSKRPSGVSNRFSGSKSGNTASLTISGLQAEDEADYYCCSYAGSTHYVFGTGTKVTVL
B5: antibody 316 (antibody, V domains shown)
VH: QVHLVESGGGVVQPGRSLRLSCAASGFTLTAYAMHWVRQAPGKRLEWVALISYDGSVKKYADSVKGRITVSGDTSTNTLHLQMNSLRADDTAVYYCVRGGVSGPNSFDLWGQGTMVTVSS
VL: DVVMTQSPLSLPVTLGQPASMSCRSSQSLEYSDGNTYVNWFHQRPGQSPRRLIYKVSYRDSGVPDRFSGSGSGTDFTLQISRVEAEDVGIYYCMQGTHWPVTFGQGTKVEIK
B6: antibody 326 (antibody, V domains shown)
VH: QITLKESGPTLVKPTQTLTLTCTFSGFSLNTSGVGVGWIRQPPGKALEWLSLIFWNDDKRYSPSLRSRLTITKDTSKNQVVLTMTNMDPVDTATYFCAHRNSGWSLKFDSWGQGSLVTVSA
VL: DIQMTQSPSSVSASVGDRVTITCRARQGISSWLVWYQQKPGKAPKLLIFGASSLQSGVPSRFNASGTGTEFTLTISSLQPEDFATYYCQQADSFPITFGQGTRLEIK
B7: anti-SARS-CoV-2 antibody 970 (antibody, V domains shown)
VH: EVQLVESGGGLVQPGGSLRLSCAASGFTFSSYWMSWVRQAPGKGLEWVANINKDGSEKYYVDSVKGRFTISRDNAKNSLYLQMNSLRAEDTAVYFCARDYRYFDWLLSQIDLEIDYFDYWGQGTLVTVSS
VL: not shown
B8: anti-SARS-CoV-2 antibody 1075 (antibody, V domains shown)
VH: QVQLVQSGAEVKKPGASVKVSCKVSGYTLIELSMHWVRQAPGKGLEWMGGFDPEDGETIYAQKFQGRVTMTEDTSTDTAYMELSSLRSEDTAVYYCATEWAYYGSGSYLGYWGQGTLVTVSS
VL: EIVMTQSPATLSVSPGERATLSCRASQSVSSNLAWFQQKPGQAPRLLIYGASTRVTVIPARFSGSGSGTEFTLTISSLQSEDFAVYYCQQYNNWPRTFGQGTKVEIKR
B9: anti-SARS-CoV-2 antibody 1139 (antibody, V domains shown)
VH: QVQLVQSGAEVKKPGASVKVSCKASGYTFSSYEINWVRQATGQGLEWMGRMTLNSGNTGYAQNFQGRVTMTRDTSISTAYMELSGLRSEDTAVYYCARMRSGWPTHGRPDDYWGQGTLVTVSS
VL: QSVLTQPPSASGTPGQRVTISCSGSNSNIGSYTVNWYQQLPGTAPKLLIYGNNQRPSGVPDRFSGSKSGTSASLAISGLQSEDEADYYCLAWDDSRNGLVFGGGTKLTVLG
B10: anti-SARS-CoV-2 antibody 851 (antibody, V domains shown)
VH: QITLKESGPTLVKPTQTLTLTCTFSGFSLSTNGVGMGWIRQPPGKALEWLALIYWDDDQFYSPSLKSRLTITRDTSKNQVVLTMTNMDPVDTATYYCAQAFYESFGFYSWGQGTLVTVSS
VL: NFMLTQPHSVSESPGKTVIISCTRSIGSIASNYVQWYQQRPGSAPTIVVFEDNERPSGVPDRFSGSIDRSSNSASLTISGLKTEDEADYYCQSYDGSSELVFGGGTKLTVLG
B11: anti-SARS-CoV-2 antibody 1015 (antibody, V domains shown)
VH: EVQLVESGGGLVQPGGSLRLSCAASGFTFSSYWMHWVRQAPGKGLVWVSHINSDGSSTSYADSVKGRFTISRDNAKNTLYLQMNSLRAEDTAVYYCARGLRYFDLDVWGQGTTVTVSS
VL: QSVLTQPPSVSEAPRQRVTISCSGSSSNIGNNAVNWYQQLPGKAPKLLIFYDDLLPSGVSDRFSGSKSGTSASLAISGLQSEDEADYYCAAWDDSLNGGVFGGGTKLTVLG
B12: anti-SARS-CoV-2 antibody 1037 (antibody, V domains shown)
VH: QITLKESGPTLVKPTQTLTLTCTFSGFSLSTSGVGVGWIRQPPGKALEWLALIYWDDDKRYSPSLKSRLTITKDTSKNQVVLTMTNMDPVDTATYYCAHHTITRINDYWGQGTLVTVSS
VL: QSALTQPASVSGSPGQSITISCTATSSDVGAYNYVSWYQQHPGKAPKLMIYDVSKRPSGVSNRFSGSKSGNTASLTISGLQAEDEADYYCSSYTSSSTVFGGGTKLTVLG
B13: anti-SARS-CoV-2 antibody 923 (antibody, V domains shown)
VH: EVQLVESGGGVVRPGGSLRLSCAASGFIFDDYDMTWVRQAPGKGLEWVSGISWNGGNTGYADSVKGRFTISRDNAKNSLYLQMNSLRAEDTALYHCAVIMSPIPRYSGYDWAGGAFDIWGQGTMVTVSS
VL: SSELTQDPAVSVALGQTVRITCQGDSLRSYYASWYQQKPGQVPILVIYDKNNRPSGIPDRFSGSSSGNTASLTITGAQAEDEADYYCNSRDSSGNAVVFGGGTKLTVLG
B14: anti-SARS-CoV-2 antibody 1149 (antibody, V domains shown)
VH: QVQLVQSGAEVKKPGASVKVSCKASGYTFASYDINWVRQATGQGPEWMGWMIPNIGNTGYAQKFQGRVTMTRNTSISTAYMELSSLTSEDTAVYYCARVSRLFNDFGLRHEAPVDFWGQGTRVTVSS
VL: QSVLTQPPSVSGAPGQRVTISCTGSSSNIGAGYDVHWYQQLPGTAPKLLIYGYSSRPSGVPDRFSGSKSGTSASLAITGLQAEDEADYYCQSYDSSLSVLFGGGTKLTVLG
B15: antibody 368 (antibody, V domains shown)
V domain 1: QITLKESGPTLVKPTETLTLTCAFSGFSLTKTGEAAGWIRQAPGRALEWVTVIFWDDDKRYSPSLQNRLTVTKDTSKNVVVLTMTNVDPVDTATYFCWAMGGPGKEFFGQGTRVAVSS
V domain 2: QSVLTQPPSVSGAPGQRVTVSCTGTSSSIGPYSDVHWYQHIPGKAPRLLIFGTSNRPSGVPARFSGSKSGSSASLVIAGLQAEDEADYYCQSYDSSLGEIYVFGTGTTVTVL
B16: antibody 372 (antibody, V domains shown)
VH: QVQLVESGGGVVQPGRSLRLSCAASGFTFSSYAMHWVRQAPGKGLEWVAVISYDGSNKYYADSVKGRFTISRDNSKNTLYLQMNSLRAEDTAVYYCARDLGTSALLWFGELFLNYGMDVWGQGTTVTVSS
VL: QSALTQPRSVSGSPGQSVTISCTGTSSDVGGYNYVSWYQQHPGKAPKLMIYDVSKRPSGVPDRFSGSKSGNTASLTISGLQAEDEADYYCCSYAGSPILVFGGGTKLTVL
B17: antibody 380 (antibody, V domains shown)
VH: QVQLVESGGGVVQPGRSLRLSCAASGFTLKNYGMHWVRQAPGKGLEWVIVLSFDGSDEYKADSVRGRFTVSRDNSKNTLFLQMNSLRPDDTAVYYCAREQPTMIEGGRGPFDIWGQGTMVTVSS
VL: EVVMTQSPATLSVSPGDRATLSCRASQGVNSNLAWYQQKPGQAPRLLIYAASTRATGIPARFSASGSGTHFTLTISSLQSEDFAVYYCLQYNNWPPWTFGQGTKLEIK
B18: antibody 363 (antibody, V domains shown)
VH: EVQLLESGGGLVQPGGSLRLSCAASGFTFSTYAMSWVRQAPGKGLEWVSAISGSGGSTYYADSVKGRFTISRDNSKNTLYLQMNSLRAEDTAVYYCASGYSPDYWGQGTLVTVSS
VL: not shown
B19: antibody 367 (antibody, V domains shown)
VH: QVQLVQSGAEVKKPGASVKVSCKASGYTFTGYYIHWVRQAPGQGLEWMGWINPNSGGTIYAQKFQGRVTMTRDTSISTAYMELSRLTSDDTAVYSCAREPYYDILTGYYAPRRYFDYWGQGTLVTVSS
VL: QSALTQPASVSGSPGQSITISCTGTSSDVGSYNYVSWYLQHPGKAPKLMIYDVSNRPSGVSNRFSGSKSGNTASLTISGLQAEDEADFYCSSYTSRSTYVFGTGTKVTVL
B20: antibody 379 (antibody, V domains shown)
VH: QVQLQESGPGLVKPSQTLSLTCTVSGGSISSGGYYWSWIRQHPGKGLEWIGYIYYSGSTYYNPSLKSRVTISVDTSKNQFSLKLSSVTAADTAVYYCARGPLDFWSGYFRLRYFDSWGQGTLVTVSS
VL: QSALTQPASVSGSPGQSITISCTGTSSDVGGYNYVSWYQQHPGKAPKLMIYDVTNRPSGVSNRFSGSKSGNTASLTISGLQAEDEADYYCSSYTSSSTCVFGTGTKVTVL
B21: antibody 366 (antibody, V domains shown)
VH: QVQLVESGGGVVQPGRSLRLSCAASGFTFSSYAMHWVRQAPGKGLEWVAVISYDGSNKYYADSVKGRFTISRDNSKNTLYLQMNSLRAEDTAVYYCARGLVGYNWFDPWGQGTLVTVSS
VL: DIQMTQSPSSVSASVGDRVTITCRASQGISSWLAWYQQKPGKAPKLLIYAASSLQSGVPSRFSGSGSGTDFTLTISSLQPEDFATYYCQQANSFTFGPGTKVDIK

Biological target: SARS-CoV-2 full length Spike protein, wild type (SARS-CoV-2, UniProt P0DTC2 14-1208)
Assay: not given

Which “bead binding signal (fold over isotype)” value does the source give for B1 here?
Its value is 1.13 fold over isotype.

For B2, which “bead binding signal (fold over isotype)” value is on record?
The value was 890 fold over isotype.

How did the “bead binding signal (fold over isotype)” value turn out when B3 was run?
The value was 1200 fold over isotype.

Which “bead binding signal (fold over isotype)” value does the source give for B4 here?
Its value is 994 fold over isotype.

B5 was tested. Which “bead binding signal (fold over isotype)” value did it give?
Its value is 442 fold over isotype.

With B6 as the binder, how does the “bead binding signal (fold over isotype)” value read?
The value was 193 fold over isotype.

Biological target: SARS-CoV-2 Spike (S) protein, wild type (SARS-CoV-2, UniProt P0DTC2 14-1208)
Assay: HT-SPR Carterra LSA; mAb coupled to chip, Spike in solution; 1:1 Langmuir fit

Which Kd does the source give for B7 here?
Its Kd is 482 pM.

And the koff?
Its koff is 0.00034 s⁻¹.

What about the kon of the same binder?
Its kon is 706000 M⁻¹ s⁻¹.

Which results are given for B8?
Kd: 717 pM; koff: 3.04e-05 s⁻¹; kon: 227000 M⁻¹ s⁻¹

With B9 as the binder, how does the Kd read?
The Kd was 43.3 pM.

And the koff?
The koff was 5.31e-05 s⁻¹.

And the kon?
The kon was 1.22e+06 M⁻¹ s⁻¹.

For B10, which Kd is on record?
The Kd was at most 1440 pM.

What about the koff of the same binder?
Its koff is at most 1e-05 s⁻¹.

And the kon?
The kon was 6960 M⁻¹ s⁻¹.

For B11, which Kd is on record?
Its Kd is 43.9 pM.

And the koff?
The koff was 2.19e-05 s⁻¹.

What about the kon of the same binder?
Its kon is 500000 M⁻¹ s⁻¹.

What does the source list for B12?
Kd: 31.9 pM; koff: 1.36e-05 s⁻¹; kon: 443000 M⁻¹ s⁻¹

B13 was tested. Which Kd did it give?
Its Kd is at most 16.1 pM.

What about the koff of the same binder?
Its koff is at most 1e-05 s⁻¹.

What about the kon of the same binder?
The kon was 653000 M⁻¹ s⁻¹.

Which results are given for B14?
Kd: ≤ 15.1 pM; koff: ≤ 1e-05 s⁻¹; kon: 664000 M⁻¹ s⁻¹

Biological target: SARS-CoV Spike protein (SARS-CoV, UniProt P59594 14-1190)
Assay: not given

With B15 as the binder, how does the “bead binding signal (median fluorescence, fold over isotype control)” value read?
Its value is 1.09 fold over isotype control.

With B16 as the binder, how does the “bead binding signal (median fluorescence, fold over isotype control)” value read?
The value was 1.08 fold over isotype control.

Which “bead binding signal (median fluorescence, fold over isotype control)” value does the source give for B17 here?
Its value is 1.21 fold over isotype control.

Which “bead binding signal (median fluorescence, fold over isotype control)” value does the source give for B18 here?
The value was 1.09 fold over isotype control.

B19 was tested. Which “bead binding signal (median fluorescence, fold over isotype control)” value did it give?
The value was 1.08 fold over isotype control.

With B20 as the binder, how does the “bead binding signal (median fluorescence, fold over isotype control)” value read?
The value was 5.9 fold over isotype control.

B21 was tested. Which “bead binding signal (median fluorescence, fold over isotype control)” value did it give?
Its value is 1.23 fold over isotype control.
